Experimental data: patent publication EP0714402B9, “POLYMER MODIFICATION” (PolyMASC Pharmaceuticals plc, priority 1993, dated 1995)
Values belong to the molecule of their own block, whether it stands above or below them.

Columns and labels:
[1] = partition of amphotericin in dextran/PEG biphasic system; format: physicochemical; conditions: 5% dextran T-500, 5% PEG-6000, pH 6.8, absorbance at 330 nm
[2] = system: granulocyte-macrophage colony; assay: granulocyte-macrophage colony assay (CFUgm) of GM-CSF growth stimulating activity; format: cell-based; conditions: versus comparable amounts of unmodified GM-CSF, 0.1 to 8 ng/ml, Fig.3a
Source text: (§1) A better approach is to perform a correlation analysis, plotting the response obtained with equivalent amounts of the modified and unmodified materials on an XY plot. Identical activity gives datum points randomly distributed about the line representing equal activity (the dashed lines). […] In contrast, the presence of inhibitory material, with or without loss of intrinsic activity, produces a departure, usually without convergence to the upper extremity.
(§2) Datum points are means of colony counts in triplicate dishes for three independent experiments (Fig. 3a) or of two independent thymidine uptake experiments (Fig 3b).

[3] = 3H-thymidine uptake assay of GM-CSF growth stimulating activity; format: cell-based; conditions: versus comparable amounts of unmodified GM-CSF, 0.0006 to 1.0ng/ml, Fig.3b
Source text: as §1, §2

[4] = degradation of 125I-GM-CSF on storage at 4°C, FPLC profiles; format: physicochemical; conditions: for relative amount of 125I, Peak 1: high molecular weight; for relative amount of 125I, Peak 2: intermediate fragments; for relative amount of 125I, Peak 3: low molecular weight
Source text: This process is slowed by PEG modification. […] When supplied, ^125I-GM-CSF has little or no low molecular weight labelled species. […] There has been generation of intermediate and low molecular weight fragments in both samples. The former are commensurate in size with proteolytic cleavage products and the latter either with free iodine or very small fragments (i.e. < circa 1kDa). Pegylation reduces the loss of high molecular weight species.

[5] = blood clearance after subcutaneous injection with [125I]GM-CSF tracer; format: in vivo, BALB/c, male, 6-8 week-old mice; conditions: late clearing component; for fold increase of t1/2 over the control figure: figures in parentheses; for t1/2: subcutaneous, […] body weight, mice
Procedure: BALB/c, male, 6-8 week-old mice, weighing approximately 20g, were pooled into groups of three per condition, with adlib access to food and water. The reaction products were evaluated by FPLC and the proportions of individual species were estimated by fitting summated Gaussian curves to the FPLC profiles and estimating the area under the curve corresponding to each individual peak and expressing this as a % of the total area for the whole FPLC profile (Table 4b). The inventors have previously established that the individual peaks seen at low TMPEG concentrations (peaks 0, 1, 2 and 3) correspond to GM-CSF, PEG1-GM-CSF, PEG2-GM-CSF, PEG3-GM-CSF, respectively. At high TMPEG concentrations the peaks are broader and less well resolved thus fitting of individual Gaussian curves over all regions of the FPLC profile may not be possible. Thus peak 3 and the peaks for more highly substituted GM-CSF (potentially PEG4-7-GM-CSF) have been pooled. The peak eluting with the void volume peak is well resolved from the PEG4-7-GM-CSF and presumably represents aggregates, the area of this peak was used to estimate the proportion of aggregated material (Table 4b).
The different PEGylated samples and unmodified GM-CSF (Hoechst), all containing <4% [^125I]GM-CSF (Amersham, 1222 Ci/mmol) to serve as a tracer, were adminstrated at a dose of 0.0524µg in 100µl (3.45 x 10^-12 mole; equivalent to 2.5µg/kg body weight) by subcutaneous injection. The amount of TMPEG concomitantly administered is also indicated in Table 4a (MPEG has been shown not to influence t1/2, but does influence egress from the subcutaneous site). Up to eight 25µl tail vein blood samples were collected from each mouse using capillary tubes at various time points ranging between 10 minutes and 80 hours, to give a minimum of three samples per time point. Samples from the capillary tubes were washed immediately into 1ml of PBS containing 50 I.U. of heparin. Radioactivity was determined using a gamma counter (LKB 1270 Rackgamma) results being shown in Fig. 6a (open circles for untreated material, other symbols as indicated on the figure). Clearances for the materials of reactions A and B were clearly biphasic, presumably reflecting the large proportion of unmodified material remaining in these preparations (Table 4b). Half-lives were calculated using linear regression (log concentration versus time) for the slower clearing component if biphasic elimination was present (solid lines Figure 6a; dotted lines give the 95% confidence intervals).

[6] = tissue distribution, organ:blood concentration ratios; format: in vivo, mice; conditions: organ:blood concentration ratios versus GM-CSF, Fig.6b
Procedure: In order to establish the contributions to extended t1/2 we examined the tissue distribution of material prepared in an identical manner to reaction C, using an identical dose. At each of the times indicated, one aminal was sacrificed and organs/tissue including kidney, spleen, liver, lung, heart and femur were recovered and radioactivity was measured as above. […] The dotted and dashed lines indicate the blood levels of GM-CSF and PEG-GM-CSF respectively. The filled circles and open circles are the organ concentrations of PEG-GM-CSF and GM-CSF respectively. […] This is somewhat surprising since circa 24% of the reaction C mixture represents PEG1-GM-CSF (i.e. material below the renal threshold). […] Thus the degree of substitution desirable for individual targets will have to be assessed on a case-by-case basis. Table 4(A)

- % material in the top (PEG-rich) phase [1]: 4.9 ± 0.2%
Molecule: C[C@@H]1[C@H](O)[C@@H](C)/C=C/C=C/C=C/C=C/C=C/C=C/C=C/[C@H](O[C@@H]2O[C@H](C)[C@@H](O)[C@H](N)[C@@H]2O)C[C@@H]2O[C@](O)(C[C@@H](O)C[C@@H](O)[C@H](O)CC[C@@H](O)C[C@@H](O)CC(=O)O[C@H]1C)C[C@H](O)[C@H]2C(=O)O [control, amphotericin]

Molecule: Comparative Example 1: gm-CSF PEGylated with TMPEG made by a previously described method (WO90/04606, Example 1) [reference compound]
- growth stimulating activity as assessed by granulocyte-macrophage colony assay [2]: additional inhibitory activity
- growth stimulating activity as assessed by thymidine uptake [3]: loss of activity without significant inhibitory material

Molecule: PEG-CM-CSF: 125I-GM-CSF exposed to TMPEG at a molar ratio of 305:1
- relative amount of 125I, Peak 1 ([4]; After 1 Month Storage at 4°C): 45.8
- relative amount of 125I, Peak 2 ([4]; After 1 Month Storage at 4°C): 8.9
- relative amount of 125I, Peak 3 ([4]; After 1 Month Storage at 4°C): 36.3
- relative amount of 125I, Peak 1 ([4]; Before Storage): 81.1
- relative amount of 125I, Peak 2 ([4]; Before Storage): 0
- relative amount of 125I, Peak 3 ([4]; Before Storage): 12.4

Molecule: Reaction A: PEG-modified GM-CSF preparation, GM-CSF 0.524 µg/ml reacted with TMPEG 6.46 mg/ml
- fold increase of t1/2 over the control figure [5]: 7.2 fold
- t1/2 [5]: 11.7 h

Molecule: Reaction B: PEG-modified GM-CSF preparation, GM-CSF 0.524 µg/ml reacted with TMPEG 19.75 mg/ml
- fold increase of t1/2 over the control figure [5]: 11.1 fold
- t1/2 [5]: 18.1 h

Molecule: Reaction C: PEG-modified GM-CSF preparation, GM-CSF 0.524 µg/ml reacted with TMPEG 197.5 mg/ml
- fold increase of t1/2 over the control figure [5]: 10.3 fold
- t1/2 [5]: 16.8 h
- renal accumulation [6]: substantially reduced

Molecule: Reaction D: PEG-modified GM-CSF preparation, GM-CSF 0.524 µg/ml reacted with TMPEG 459.7 mg/ml; contains >50% of aggregates
- fold increase of t1/2 over the control figure [5]: 15.3 fold
- t1/2 [5]: 25.1 h

Molecule: gm-CSF PEGylated using the process of Example 1: gm-CSF coupled with TMPEG made by the process of the invention
- growth stimulating activity as assessed by granulocyte-macrophage colony assay [2]: no significant loss
- growth stimulating activity as assessed by thymidine uptake [3]: no significant loss
